Results from article PMC3807708.

How the values were obtained:
[1] = molecular target: extracellular domain of human interferon-γ receptor 1 (IFN-γ-Rx), mutant H222R (human) (UniProt P15260); test: SPR; His-tagged receptor immobilised on Ni2+-coated HTG chip; IFN-γ-SC as analyte; PBST; 15 °C; preliminary data of temperature dependency
[2] = molecular target: extracellular domain of human interferon-γ receptor 1 (IFN-γ-Rx), wild type (human) (UniProt P15260); test: as above
[3] = molecular target: extracellular domain of human interferon-γ receptor 1 (IFN-γ-Rx), mutant H222R (human) (UniProt P15260); test: SPR; His-tagged receptor immobilised on Ni2+-coated HTG chip; IFN-γ-SC as analyte; PBST; 20 °C; preliminary data of temperature dependency
[4] = molecular target: extracellular domain of human interferon-γ receptor 1 (IFN-γ-Rx), mutant N70G (human) (UniProt P15260); test: as above
[5] = molecular target: extracellular domain of human interferon-γ receptor 1 (IFN-γ-Rx), mutant N96W (human) (UniProt P15260); test: as above
[6] = molecular target: extracellular domain of human interferon-γ receptor 1 (IFN-γ-Rx), mutant S95R (human) (UniProt P15260); test: as above
[7] = molecular target: extracellular domain of human interferon-γ receptor 1 (IFN-γ-Rx), wild type (human) (UniProt P15260); test: as above
[8] = molecular target: extracellular domain of human interferon-γ receptor 1 (IFN-γ-Rx), mutant H222R (human) (UniProt P15260); test: SPR; His-tagged receptor immobilised on Ni2+-coated HTG chip; IFN-γ-SC as analyte; PBST; 30 °C; preliminary data of temperature dependency
[9] = molecular target: extracellular domain of human interferon-γ receptor 1 (IFN-γ-Rx), mutant N70G (human) (UniProt P15260); test: as above
[10] = molecular target: extracellular domain of human interferon-γ receptor 1 (IFN-γ-Rx), mutant N96W (human) (UniProt P15260); test: as above
[11] = molecular target: extracellular domain of human interferon-γ receptor 1 (IFN-γ-Rx), mutant S95R (human) (UniProt P15260); test: as above
[12] = molecular target: extracellular domain of human interferon-γ receptor 1 (IFN-γ-Rx), wild type (human) (UniProt P15260); test: as above
[13] = molecular target: extracellular domain of human interferon-γ receptor 1 (IFN-γ-Rx), mutant H222R (human) (UniProt P15260); test: SPR; His-tagged receptor immobilised on Ni2+-coated HTG chip; IFN-γ-SC as analyte; PBST; 35 °C; preliminary data of temperature dependency
[14] = molecular target: extracellular domain of human interferon-γ receptor 1 (IFN-γ-Rx), mutant N70G (human) (UniProt P15260); test: as above
[15] = molecular target: extracellular domain of human interferon-γ receptor 1 (IFN-γ-Rx), mutant N96W (human) (UniProt P15260); test: as above
[16] = molecular target: extracellular domain of human interferon-γ receptor 1 (IFN-γ-Rx), mutant S95R (human) (UniProt P15260); test: as above
[17] = molecular target: extracellular domain of human interferon-γ receptor 1 (IFN-γ-Rx), wild type (human) (UniProt P15260); test: as above
[18] = molecular target: extracellular domain of human interferon-γ receptor 1 (IFN-γ-Rx), mutant N70G (human) (UniProt P15260); test: SPR; His-tagged receptor immobilised on Ni2+-activated HTG chip (ProteOn XPR36); IFN-γ-SC as analyte, 1.2 to 99 nM; PBST (PBS pH 7.4, 0.005% Tween20); 25 °C; 1:1 Langmuir with drift; averages over four different batches of IFN-γ-SC
[19] = molecular target: extracellular domain of human interferon-γ receptor 1 (IFN-γ-Rx), mutant N96W (human) (UniProt P15260); test: as above
[20] = molecular target: extracellular domain of human interferon-γ receptor 1 (IFN-γ-Rx), wild type (human) (UniProt P15260); test: as above

Kd [1]: 16.4 nM | Kd [2]: 16.8 nM | Kd [3]: 19.4 nM | Kd [4]: 17.3 nM | Kd [5]: 5.28 nM | Kd [6]: 44.4 nM | Kd [7]: 21.7 nM | Kd [8]: 56 nM | Kd [9]: 49.2 nM | Kd [10]: 12.2 nM | Kd [11]: 107 nM | Kd [12]: 59.9 nM | Kd [13]: 103 nM | Kd [14]: 77 nM | Kd [15]: 24.3 nM | Kd [16]: 153 nM | Kd [17]: 92.8 nM | Kd [18]: 19 nM | Kd [19]: 5.3 nM | Kd [20]: 21 nM
Substance: single-chain form of human interferon-γ (IFN-γ-SC) (ligand)
